Measured values as given in publication PMC2603577 (Journal of immunology (Baltimore, Md. : 1950), 2008).

How the values were obtained:
[1] = tested on: human microglia
[2] = tested on: human MDM
[3] = tested on: HSC70; experiment: Immunoblot of MDM lysates, HSC70; format: cell-based, human; conditions: cytokines 10 ng/ml each, 120 hrs, vs control
[4] = tested on: HSP70; experiment: Immunoblot of MDM lysates, HSP70; format: cell-based, human; conditions: cytokines 10 ng/ml each, 120 hrs, vs control
[5] = tested on: IDE; experiment: Immunoblot of MDM lysates, IDE; format: cell-based, human; conditions: cytokines 10 ng/ml each, 120 hrs, vs control
[6] = tested on: human MDM; experiment: Pulse-chase of fibrillar 125I-Aβ in MDM chased with recombinant cytokines; format: cell-based; conditions: cytokines at final 10 ng/ml, chase 120 hrs, vs control MDM
[7] = tested on: human microglia; experiment: Pulse-chase of fibrillar 125I-Aβ in microglia chased with recombinant cytokines; format: cell-based; conditions: cytokines at final 10 ng/ml, chase 120 hrs, vs control

Fibrillar Aβ40: iodinated synthetic Aβ40 peptide aggregated with stirring at 37°C for 3 days, precipitated fraction
extracellular TCA-insoluble fraction at saturation (% total count) [1]: ~30%
extracellular TCA-soluble fraction at saturation (% total count) [1]: approximately 10%
intracellular retention at saturation (% total count) [1]: approximately 60%
extracellular TCA-soluble fraction (degraded form) at saturation (% total count) [2]: ~40%
intracellular retention at saturation (% total count) [2]: approximately 50%

Fibrillar Aβ42: iodinated synthetic Aβ42 peptide aggregated with stirring at 37°C for 3 days, precipitated fraction
intracellular retention at saturation (% total count) [1]: ~42%
extracellular TCA-soluble fraction (degraded form) at saturation (% total count) [2]: ~40%

IFN-γ: recombinant cytokine interferon-γ
reduction of HSC70 expression (band intensity / β-actin) [3]: no effect
reduction of HSP70 expression (band intensity / β-actin) [4]: no effect
reduction of IDE expression (band intensity / β-actin) [5]: no effect

IL-4: recombinant cytokine interleukin-4
effect on intracellular retention of fibrillar Aβ40 [6]: significantly reduced
effect on intracellular retention of fibrillar Aβ42 [6]: suppressed

IL-10: recombinant cytokine
effect on intracellular retention of fibrillar Aβ40 [6]: significantly reduced
effect on intracellular retention of fibrillar Aβ42 [6]: suppressed

IL-13: recombinant cytokine
effect on intracellular retention of fibrillar Aβ40 [6]: no effect

Oligomeric Aβ40: 125I-Aβ40 incubated in PBS at 4°C for 24hs, supernatant fraction
extracellular TCA-soluble fraction (degraded form) at saturation (% total count) [2]: ~75%

Oligomeric Aβ42: 125I-Aβ42 incubated in PBS at 4°C for 24hs, supernatant fraction
extracellular TCA-soluble fraction (degraded form) at saturation (% total count) [2]: ~40%

TGF-β1: recombinant cytokine transforming growth factor-β1
effect on intracellular retention of fibrillar Aβ40 [6]: significantly reduced

TNF-α
reduction of HSC70 expression (band intensity / β-actin) [3]: no effect
reduction of HSP70 expression (band intensity / β-actin) [4]: no effect
reduction of IDE expression (band intensity / β-actin) [5]: no effect

B1: IFN-γ: recombinant cytokine interferon-γ (protein, UniProt P01579 24-161, looked up)
Interferon gamma: QDPYVKEAENLKKYFNAGHSDVADNGTLFLGILKNWKEESDRKIMQSQIVSFYFKLFKNFKDDQSIQKSVETIKEDMNVKFFNSNKKKRDDFEKLTNYSVTDLNVQRKAIHELIQVMAELSPAAKTGKRKRSQMLFRG
effect on intracellular retention of fibrillar Aβ40 [6]: significantly enhanced
effect on intracellular retention of fibrillar Aβ42 [6]: significantly enhanced
effect on intracellular retention of fibrillar Aβ40 [7]: significantly enhanced
effect on intracellular retention of fibrillar Aβ42 [7]: enhanced
